Changes are numbered by the printed parent chain. In names and notes the source's numbering stands.
Legend:
AtPYR1 with AtHAB1 = target: T1, AtPYR1 with AtHAB1 (Arabidopsis thaliana, UniProt O49686); experiment: AlphaScreen, ABA-dependent receptor-PP2C interaction; assay type: binding
T1 construct: gene PYR1; H6-SUMO-AtPYR1 (9-182) and biotin-MBP-AtHAB1 (172-511), E. coli; tags kept; with Protein phosphatase 2C 16
T1 sequence (O49686 9-182): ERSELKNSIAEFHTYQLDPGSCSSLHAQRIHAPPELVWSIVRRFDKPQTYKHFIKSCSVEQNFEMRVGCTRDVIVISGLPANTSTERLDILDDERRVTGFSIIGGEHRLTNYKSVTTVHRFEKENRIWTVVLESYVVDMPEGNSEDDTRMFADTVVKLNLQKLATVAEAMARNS
T1 sequence (Q9CAJ0 172-511 partner): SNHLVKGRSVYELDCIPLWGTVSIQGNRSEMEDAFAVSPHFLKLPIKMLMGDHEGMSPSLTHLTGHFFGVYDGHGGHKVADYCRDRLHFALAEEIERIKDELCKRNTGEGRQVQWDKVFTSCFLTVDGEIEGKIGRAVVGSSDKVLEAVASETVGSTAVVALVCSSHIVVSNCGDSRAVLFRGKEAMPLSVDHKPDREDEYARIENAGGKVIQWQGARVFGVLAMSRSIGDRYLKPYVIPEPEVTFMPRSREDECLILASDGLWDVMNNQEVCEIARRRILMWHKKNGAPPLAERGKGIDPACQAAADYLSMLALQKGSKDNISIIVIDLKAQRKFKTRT

FePYR1-ABA-AtHAB1 = target: T2, FePYR1-ABA-AtHAB1 (Festuca elata, UniProt A0A2D1UXN2); experiment: as above; assay type: binding
T2 construct: H6-SUMO-FePYR1 and biotin-MBP-AtHAB1 (172-511), E. coli; tags kept for AlphaScreen; with Protein phosphatase 2C 16 (HAB1, Arabidopsis thaliana)
T2 sequence (A0A2D1UXN2 1-212): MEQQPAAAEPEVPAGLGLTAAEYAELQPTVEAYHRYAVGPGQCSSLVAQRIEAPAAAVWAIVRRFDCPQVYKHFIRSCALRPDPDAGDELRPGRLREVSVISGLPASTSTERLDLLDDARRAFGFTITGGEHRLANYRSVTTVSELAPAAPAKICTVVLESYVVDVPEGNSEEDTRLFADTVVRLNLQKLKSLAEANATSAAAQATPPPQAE
T2 sequence (Q9CAJ0 172-511 partner): T1 sequence (Q9CAJ0 172-511 partner)
Text: AlphaScreen, ABA-dependent receptor-PP2C interaction on FePYR1-ABA-AtHAB1 | EC50 values of FePYL1, FePYR1, ZjPYL2 in interacting with AtHAB1

ZjPYL2 with AtHAB1 = target: T3, ZjPYL2 with AtHAB1 (Zoysia japonica, UniProt A0A2D1UXP2); experiment: as above; assay type: binding
T3 construct: H6-SUMO-ZjPYL2 and biotin-MBP-AtHAB1 (172-511), E. coli; tags kept; with Protein phosphatase 2C 16 (HAB1, Arabidopsis thaliana)
T3 sequence (A0A2D1UXP2 1-216): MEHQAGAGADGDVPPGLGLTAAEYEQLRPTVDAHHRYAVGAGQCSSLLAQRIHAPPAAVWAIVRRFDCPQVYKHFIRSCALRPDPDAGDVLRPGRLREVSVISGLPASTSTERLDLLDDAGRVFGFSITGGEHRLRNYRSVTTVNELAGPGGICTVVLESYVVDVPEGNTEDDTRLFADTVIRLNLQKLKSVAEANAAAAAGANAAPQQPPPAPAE
T3 sequence (Q9CAJ0 172-511 partner): T1 sequence (Q9CAJ0 172-511 partner)
Text: AlphaScreen, ABA-dependent receptor-PP2C interaction on ZjPYL2 with AtHAB1 | EC50 values of FePYL1, FePYR1, ZjPYL2 in interacting with AtHAB1

AtPYR1 = target: T4, AtPYR1 (Arabidopsis thaliana, UniProt O49686); experiment: ABA binding assay in supplement (method not given); conditions: affinity reported comparable to FePYR1
T4 construct: gene PYR1; homodimer
T4 sequence (O49686 9-182): T1 sequence (O49686 9-182)

FePYL1 with AtHAB1 = target: T5, FePYL1 with AtHAB1 (Festuca elata, UniProt A0A2D1UXN6); experiment: AlphaScreen, ABA-dependent receptor-PP2C interaction; assay type: binding
T5 construct: H6-SUMO-FePYL1 and biotin-MBP-AtHAB1 (172-511), E. coli; tags kept; with Protein phosphatase 2C 16 (HAB1, Arabidopsis thaliana)
T5 sequence (A0A2D1UXN6 1-204): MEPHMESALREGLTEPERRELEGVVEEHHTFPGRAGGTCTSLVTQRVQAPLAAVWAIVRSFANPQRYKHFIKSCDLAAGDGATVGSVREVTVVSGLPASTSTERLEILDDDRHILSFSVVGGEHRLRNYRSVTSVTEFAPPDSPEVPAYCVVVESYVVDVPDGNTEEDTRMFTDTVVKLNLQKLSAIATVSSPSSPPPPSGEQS
T5 sequence (Q9CAJ0 172-511 partner): T1 sequence (Q9CAJ0 172-511 partner)
Text: AlphaScreen, ABA-dependent receptor-PP2C interaction on FePYL1 with AtHAB1 | EC50 values of FePYL1, FePYR1, ZjPYL2 in interacting with AtHAB1

[1] = target: T6, biotin-MBP-tagged AtHAB1 (residues 172-511), Q9CAJ0; experiment: AlphaScreen; conditions: chain shown with the change, read off a plot
T6 chain: T1 sequence (Q9CAJ0 172-511 partner)

[2] = target: the molecule itself; experiment: SEC; HPLC size-exclusion column chromatography with or without (+)-ABA; 43 kD protein marker
[3] = ABA (100 μM), parent: est. 8400
[4] = DMSO (no ABA), parent: est. 2200

## CC1=CC(=O)CC(C)(C)C1(O)/C=C/C(C)=C\C(=O)O (stereo in doubt) [(+)-ABA]
AtPYR1 with AtHAB1
  EC50: 7.36 µM
FePYR1-ABA-AtHAB1
  EC50: 2.3 µM
ZjPYL2 with AtHAB1
  EC50: 3.73 µM
AtPYR1
  ABA binding assay in supplement (method not given): the binding affinity with ABA ... are comparable between these two ABA receptors
FePYL1 with AtHAB1
  EC50: 0.671 µM

B1: H6-SUMO-tagged FePYR1 S102A (protein)
chain: T2 sequence (A0A2D1UXN2 1-212) with S102A
[1]; ABA (2 μM), parent: est. 6900
  response (photon counts): 750
[1]; ABA (10 μM), parent: est. 12000
  response (photon counts): 3000
[1]; [3]
  response (photon counts): 5800

B2: H6-SUMO-tagged FePYR1 L185C (protein)
chain: T2 sequence (A0A2D1UXN2 1-212) with L185C
[1]; ABA (5 μM), parent: est. 17000
  response (photon counts): 16000
[1]; [4]
  response (photon counts): 2200

B3: H6-SUMO-tagged FePYR1 I127A (protein)
chain: T2 sequence (A0A2D1UXN2 1-212) with I127A
[1]; ABA (5 μM), parent: est. 17000
  response (photon counts): 9500
[1]; [4]
  response (photon counts): 2100

B4: H6-SUMO-tagged FePYR1 E111A (protein)
chain: T2 sequence (A0A2D1UXN2 1-212) with E111A
[1]; [3]
  response (photon counts): 800

B5: AtPYR1 (size-exclusion chromatography, with or without ABA) (receptor, Arabidopsis, UniProt O49686 9-182, looked up)
chain: T1 sequence (O49686 9-182)
notes: Arabidopsis ABA receptor PYR1; also called AtPYR1-apo; source: E. coli, purified
[2]
  stoichiometry N: 2

Source: PMC5656587, “Structure determination and activity manipulation of the turfgrass ABA receptor FePYR1” (Scientific Reports, 2017)
